1 substance from patent US5786169 can be followed below.

Assay in all cases: yeast interaction trap (two-hybrid), LexAop-lacZ reporter pJK103 in EGY48, galactose medium
In experiment [1] the target is LexA-Cdc2 (Dm) bait protein (Drosophila) (UniProt P23572).
Experiment [2] concerns the target LexA-Cdc2 (Hs) bait protein (human) (UniProt P06493).
Experiment [3] deals with LexA-Cdc28 (Sc) bait protein (S. cerevisiae) (UniProt P00546).
Experiment [4] has as its target LexA-Cdc2c (Dm) bait protein (Drosophila) (UniProt P23573).
Experiment [5] concerns the target LexA-Fus3 (Sc) bait protein (S. cerevisiae) (UniProt P16892).
Experiment [6] addresses LexA-Cdk2 (Hs) bait protein (human) (UniProt P24941).

With “tagged Cdi1 (activation-tagged prey fusion expressed from library plasmid pJG4-5)”, the β-Galactosidase Activity (β-galactosidase units) is 40 in experiment [1]; 1580 in experiment [2]; 480 in experiment [3]; greater than 2 in experiment [4]; greater than 2 in experiment [5]; 440 in experiment [6].
